In paper PMC10782996:

What was measured:
[1] = tested on: T1, Spo0A (Paenibacillus polymyxa SC2), ORF:894240d5; test: EMSA; conditions: EMSA: Beyotime chemiluminescent EMSA kit buffer (composition and pH not stated), 10 uL, 20 min at room temperature, native PAGE in 0.5x TBE, 70 V for 70 min …
T1 sequence: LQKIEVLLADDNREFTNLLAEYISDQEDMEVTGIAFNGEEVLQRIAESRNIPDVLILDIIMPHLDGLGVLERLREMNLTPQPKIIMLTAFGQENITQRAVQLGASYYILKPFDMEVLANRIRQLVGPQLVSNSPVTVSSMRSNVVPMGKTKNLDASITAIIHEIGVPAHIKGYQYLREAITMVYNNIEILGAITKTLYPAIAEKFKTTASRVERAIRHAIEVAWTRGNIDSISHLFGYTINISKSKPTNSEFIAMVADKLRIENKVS

[2] = tested on: T2, AbrB3 (Paenibacillus polymyxa SC2), ORF:7049d318; test: EMSA; conditions: EMSA: Beyotime chemiluminescent EMSA kit buffer (composition and pH not stated), 10 uL, 20 min at room temperature, native PAGE in 0.5x TBE, 70 V for 70 min …
T2 sequence: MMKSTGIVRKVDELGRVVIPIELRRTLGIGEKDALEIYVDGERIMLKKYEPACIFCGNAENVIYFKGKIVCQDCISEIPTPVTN

Sequence | binding [1] | binding [2]
ATGTAATTCACAGCCCCTTAACGTATATTACTAAAAATTTCTTTGCCAACTAGAATATTGATTCTGAATATATATCGGCAATCCCCTATAATTCCTCAACACGTTTTCCACCATTAAACAAACATATTATGGGAATTACTTGTATACTTTTCAACAGTTTACTTAATATATGCGATTGCTTCTCTAAGCCTATTCTTTTTTATCATAATTATTTAGTATTATAAGGATATAAAAAAGGAGGTTATCAT (double strand) [Pabh] | binds | binds
TGTACTTCCTCCTTATTGAGTGTTATTCCATTGGGACATCTGTTTGCATTAAATAAATATTTCTTGTCGGAGTATATGATTTCGACATCGAATTATGAATTCCTTCTGTCGAAAATTATTTTTATTTATTTTTTTTATTAATTCAATTATAATTGAATTTTTATCTTGCAATTCTGAGTTATTCCCCTGCTTTTCGACAAAAAAATCTTAAGGCCA (double strand) [Pspo0A] | binds | 
